Molecular target: T1, linear (M1)-tetraubiquitin (UniProt P0CG48 1-76; P0CG48 1-76; P0CG48 1-76; P0CG48 1-76)
T1 construct: ubiquitin, first of four units joined head to tail (Met1-linked); ubiquitin, second unit; ubiquitin, third unit; ubiquitin, fourth unit; Four ubiquitins on one chain, N-terminal Met1 linked to the C-terminus of the unit before; also called linear (M1)-linked tetraubiquitin; source: bought: Boston Biochem
Experiment: pull-down; GST-fusion proteins with tetraubiquitin (3.4 μg), then glutathione Sepharose at 4°C 1 h; bound ubiquitin detected by anti-ubiquitin immunoblotting
Conditions: both partners purified

T1 sequence (P0CG48 1-304, one chain of several): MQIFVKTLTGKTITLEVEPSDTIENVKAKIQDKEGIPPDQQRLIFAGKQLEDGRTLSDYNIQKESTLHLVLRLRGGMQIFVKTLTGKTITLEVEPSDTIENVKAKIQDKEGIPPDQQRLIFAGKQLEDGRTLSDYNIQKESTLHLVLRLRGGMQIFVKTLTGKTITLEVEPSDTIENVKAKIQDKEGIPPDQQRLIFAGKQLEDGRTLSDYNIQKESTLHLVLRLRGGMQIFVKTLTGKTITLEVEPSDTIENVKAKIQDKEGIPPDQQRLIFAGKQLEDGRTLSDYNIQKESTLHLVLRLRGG

B1: GST-fused UBZ domain (a.a. 394-446) of NDP52 (domain or fragment, human, UniProt Q13137 394-446, looked up)
chain: IKKCPICKADDICDHTLEQQQMQPLCFNCPICDKIFPATEKQIFEDHVFCHSL
notes: NDP52 (CALCOCO2), human, UBZ domain, a.a; Vector pGEX6p-1; also called GST-fused NDP52-UBZ domain; source: E. coli BL21 (DE3)pLysS, purified with a GSTrap column
B1: binds.
